Test results as given in patent publication US7943574B2, “Cell-permeable peptide inhibitors of the JNK signal transduction pathway” (Xigen SA, priority 2002, dated 2011).
“Also recorded” adds a separate entry of the source. Residues, ends and D or L forms follow the SMILES beside them.

Columns and labels:
[1] = tested on: developing rat cortical neurons; assay: Incubation of developing rat cortical neurons with peptide (toxicity, neuron number); details: 1 μM peptide, versus control developing rat cortical neurons (FIG. 4)
[2] = molecular target: T1, SH3 domain of IB2 (MKK7 binding) (Homo sapiens, UniProt Q13387); assay: Pull-down of 35S-labelled MKK7 on GST-SH3 domain of IB2; details: GST-SH3 domain of IB2, 35S-labelled MKK7 (FIG. 2)
T1 construct: the SH3 domains of IB1 and IB2 were subcloned using PCR into the pGEX-4T1 vector in frame with the GST; GST (N); made in house; host or cells: E. coli
T1 sequence (Q13387 604-665 limits assumed): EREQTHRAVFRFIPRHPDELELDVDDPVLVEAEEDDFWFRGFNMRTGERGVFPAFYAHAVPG
Protocol: (§1) Effects of the αSH3 peptide on JNK biological activities were then studied. […] In the pull-down experiments, the SH3 domains of IB1 and IB2 were subcloned using PCR into the pGEX-4T1 vector in frame with the GST (Pharmacia). The recombinant proteins were produced in E. coli. Purification was performed in native conditions using a glutathione-agarose column (Pharmacia). ^35S-labelled MKK7 was then used in classical pull-down experiments.

[3] = molecular target: T2, SH3 domain of IB1 (MKK7 binding) (Homo sapiens, UniProt Q9UQF2); assay: Pull-down of 35S-labelled MKK7 on GST-SH3 domain of IB1; details: GST-SH3 domain of IB1, 35S-labelled MKK7 (FIG. 2)
T2 construct: the SH3 domains of IB1 and IB2 were subcloned using PCR into the pGEX-4T1 vector in frame with the GST; GST (N); made in house; host or cells: E. coli
T2 sequence (Q9UQF2 488-549 limits assumed): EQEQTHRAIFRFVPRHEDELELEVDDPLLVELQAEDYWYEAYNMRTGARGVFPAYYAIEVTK
Protocol: as §1

Compound | toxicity on developing neurons (residual necrotic bodies) [1] | blocking of the binding of MKK7 to IB2 [2] | blocking of the binding of MKK7 to IB1 [3]
CSCC[C@H](NC(=O)CNC(=O)[C@@H](NC(=O)[C@H](CO)NC(=O)[C@@H](NC(=O)[C@H](CO)NC(=O)[C@H](CCCNC(=N)N)NC(=O)[C@H](CCCNC(=N)N)NC(=O)[C@H](CCCNC(=N)N)NC(=O)[C@H](CCC(N)=O)NC(=O)[C@H](CCCNC(=N)N)NC(=O)[C@H](CCCNC(=N)N)NC(=O)[C@H](CCCCN)NC(=O)[C@H](CCCCN)NC(=O)[C@@H](N)CCCNC(=N)N)C(C)C)C(C)C)C(=O)N1CCC[C@H]1C(=O)N1CCC[C@H]1C(=O)N[C@@H](CO)C(=O)N1CCC[C@H]1C(=O)N[C@@H](CCCNC(=N)N)C(=O)N1CCC[C@H]1C(=O)O [TAT-αSH3] (H-RKKRRQRRRSVSVGMPPSPRP-OH) | lacked residual necrotic bodies; also recorded: not toxic |  | 
αSH3: consensus SH3 binding peptide, 12 aa, SVSVGMPPSP RP (SVSVGMPPSPRP) |  | efficiently blocks | efficiently blocks
